# Reference: article PMC4731797
# Target: E. coli 70S ribosome (E. coli (endogenous in MRE600)) (UniProt P0AG67)
# Assay: co-purification with ribosomes isolated from cell extract; 70S ribosomes from E. coli MRE600, low salt wash (0.75 M NH4Cl; 0.6 M for 2D-PAGE); 12% SDS-PAGE and 2D-PAGE, MALDI-TOF/TOF mass spectrometry, western blot with anti-AdhE; occupancy from band intensities with L2 as 100%
row,occupancy [%],Substance
1,60,"outer membrane protein C (OmpC), co-purified with the E. coli 70S ribosome (from UniProt P06996 22-367) (natural protein)"
2,50,"aldehyde-alcohol dehydrogenase E (AdhE), co-purified with the E. coli 70S ribosome (from UniProt P0A9Q7 1-891) (natural protein)"
